According to IntAct's records for PubMed 22770221:

B1: 14-3-3 protein epsilon (Rattus norvegicus (Rat)), P62260 (parent)
chain: MDDREDLVYQAKLAEQAERYDEMVESMKKVAGMDVELTVEERNLLSVAYKNVIGARRASWRIISSIEQKEENKGGEDKLKMIREYRQMVETELKLICCDILDVLDKHLIPAANTGESKVFYYKMKGDYHRYLAEFATGNDRKEAAENSLVAYKAASDIAMTELPPTHPIRLGLALNFSVFYYEILNSPDRACRLAKAAFDDAIAELDTLSEESYKDSTLIMQLLRDNLTLWTSDMQGDGEEQNKEALQDVEDENQ
partner: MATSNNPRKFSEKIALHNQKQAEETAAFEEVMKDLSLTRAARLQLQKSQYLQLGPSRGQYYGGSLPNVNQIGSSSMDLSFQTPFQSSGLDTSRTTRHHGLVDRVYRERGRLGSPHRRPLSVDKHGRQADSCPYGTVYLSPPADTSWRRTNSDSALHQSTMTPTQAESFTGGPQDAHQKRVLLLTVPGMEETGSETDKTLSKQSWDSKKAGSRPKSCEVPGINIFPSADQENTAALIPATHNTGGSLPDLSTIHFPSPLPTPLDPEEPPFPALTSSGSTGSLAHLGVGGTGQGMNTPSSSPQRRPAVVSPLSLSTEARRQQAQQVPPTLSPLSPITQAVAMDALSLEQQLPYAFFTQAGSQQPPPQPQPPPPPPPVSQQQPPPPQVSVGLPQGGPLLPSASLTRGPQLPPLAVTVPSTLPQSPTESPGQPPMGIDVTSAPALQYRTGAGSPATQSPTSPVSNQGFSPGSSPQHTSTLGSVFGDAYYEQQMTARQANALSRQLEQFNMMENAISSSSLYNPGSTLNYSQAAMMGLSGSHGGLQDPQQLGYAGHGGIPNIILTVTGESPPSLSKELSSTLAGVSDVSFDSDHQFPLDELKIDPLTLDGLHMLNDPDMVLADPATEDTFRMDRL

Variants of: B1
Conditions: with crtc1_rat Crtc1, Q157S1

Row | Variant | effect of a mutation on the interaction
1 | K50E | decreasing interaction strength
